# Results reported in US20250215083A1 (JIANGSU HENGRUI PHARMACEUTICALS, published 2025).
# Numbering of substitutions follows the chain as printed.
# B1: F2-3 (bispecific antibody)
# heavy 1: not shown
# light 1: DIQMTQSPSSVSASVGDRVTITCKASQNVGSNVAWYQQKPGKAPKALIYSASYRYSGVPSRFSGSGSGTDFTLTISSLQPEDFATYYCHQYNSYPPTFGQGTKLEIKRTVAAPSVFIFPPSDEQLKSGTASVVCLLNNFYPREAKVQWKVDNALQSGNSQESVTEQDSKDSTYSLSSTLTLSKADYEKHKVYACEVTHQGLSSPVTKSFNRGEC
# heavy 2: not shown
# light 2: not shown
# B2: F2-2 (bispecific antibody)
# heavy 1: not shown
# light 1: DVVLTQSPLSLPVTLGQPASISCKSSQSLLHSSGKTYLNWLLQRPGQSPRRLIYLVSKLDSGVPDRFSGSGSGTDFTLKISRVEAEDVGVYYCAQGTHFPRTFGGGTKVEIKRTVAAPSVFIFPPSDEQLKSGTASVVCLLNNFYPREAKVQWKVDNALQSGNSQESVTEQDSKDSTYSLSSTLTLSKADYEKHKVYACEVTHQGLSSPVTKSFNRGEC
# heavy 2: not shown
# light 2: not shown
# B3: F4-4 (bispecific antibody)
# heavy 1: not shown
# light 1: not shown
# heavy 2: EVQLVESGGGLVQPGGSLRLSCAASGFTFTDYYLSWVKQAPGKGLEWVAFIRNRAKGYTTEYSASVKGRFTISRDNSKNSLYLQMNSLRAEDTAVYYCARMGGKGWHFDVWGQGTTVTVSSASTKGPSVFPLAPSSKSTSGGTAALGCLVKDYFPEPVTVSWNSGALTSGVHTFPAVLQSSGLYSLSSVVTVPSSSLGTQTYICNVNHKPSNTKVDKKVEPKSCDKTHTCPPCPAPEAAGGPSVFLFPPKPKDTLMISRTPEVTCVVVDVSHEDPEVKFNWYVDGVEVHNAKTKPREEQYNSTYRVVSVLTVLHQDWLNGKEYKCKVSNKALPAPIEKTISKAKGQPREPQVCTLPPSRDELTKNQVSLSCAVKGFYPSDIAVEWESNGQPENNYKTTPPVLDSDGSFFLVSKLTVDKSRWQQGNVFSCSVMHEALHNHYTQKSLSLSPGK
# light 2: DVVMTQSPLSLPVTPGEPASISCRSSQSIVHSNRNTYLEWYLQKPGQSPKLLIYKVSNRFSGVPDRFFGSGSGTDFTLKINRVEAEDVGVYYCFQGSHVPFTFGGGTKVEIKRTVAAPSVFIFPPSDEQLKSGTASVVCLLNNFYPREAKVQWKVDNALQSGNSQESVTEQDSKDSTYSLSSTLTLSKADYEKHKVYACEVTHQGLSSPVTKSFNRGEC
# notes: formula 4
# B4: F4-5 (bispecific antibody)
# heavy 1: not shown
# light 1: not shown
# heavy 2: B3 heavy 2 with S77A, K78Q
# light 2: B3 light 2
# notes: formula 4
# B5: F11-15 (bispecific antibody)
# heavy: not shown
# light: B1 light 1 with A43S, T85E
# notes: formula 11
# B6: F11-16 (bispecific antibody)
# heavy: not shown
# light: B1 light 1 with A43S, T85E
# notes: formula 11
# B7: F11-14 (bispecific antibody)
# heavy: not shown
# light: B1 light 1
# notes: formula 11
# B8: PL-1 (bispecific antibody)
# chain 1: not shown
# chain 2: DIVLTQSPASLAVSPGQRATITCRASESVSIHGTHLMHWYQQKPGQPPKLLIYAASKLESGVPARFSGSGSGTDFTLTINPVEAEDTANYYCQQSFEDPLTFGQGTKLEIKGGGGSGIPPKIECLPIDISIDEGKVLTVASAFTGEPTPEVTWSTGGRKIHSQEQGRFHIENTDDLTTLIIKDVQKQDGGLYTLTLRNEFGSDSATVNIHIRSI
# chain 3: not shown
# chain 4: not shown
# B9: PL-10 (bispecific antibody)
# chain 1: not shown
# chain 2: B8 chain 2 with A142C, L176S, I180T
# chain 3: not shown
# chain 4: not shown
# B10: PL-11 (bispecific antibody)
# chain 1: not shown
# chain 2: B8 chain 2 with G112R, G113T, G114V, G115A, L176S, I180T
# chain 3: not shown
# chain 4: not shown
# B11: PL-12 (bispecific antibody)
# chain 1: not shown
# chain 2: B8 chain 2 with G112R, G113T, G114V, G115A, V136C, L176S, I180T
# chain 3: not shown
# chain 4: not shown
# B12: PL-14 (bispecific antibody)
# chain 1: not shown
# chain 2: B8 chain 2 with G112R, G113T, G114V, G115A, L176S, I180T
# chain 3: not shown
# chain 4: not shown
# B13: PL-4 (bispecific antibody)
# chain 1: not shown
# chain 2: B8 chain 2 with A142C, L176S, I180T
# chain 3: not shown
# chain 4: not shown
# B14: PL-19 (bispecific antibody)
# chain 1: not shown
# chain 2: B8 chain 2 with G112R, G113T, G114V, G115A, A142C, L176S, I180T
# chain 3: not shown
# chain 4: not shown
# B15: PL-15 (bispecific antibody)
# chain 1: not shown
# chain 2: B8 chain 2 with G112R, G113T, G114V, G115A, V136C, L176S, I180T
# chain 3: not shown
# chain 4: not shown
# B16: PL-7 (bispecific antibody)
# chain 1: not shown
# chain 2: B8 chain 2 with A142C, L176S, I180T
# chain 3: not shown
# chain 4: not shown
# B17: PL-13 (bispecific antibody)
# chain 1: not shown
# chain 2: B8 chain 2 with G112R, G113T, G114V, G115A, A142C, L176S, I180T
# chain 3: not shown
# chain 4: not shown
# B18: PL-9 (bispecific antibody)
# chain 1: not shown
# chain 2: B8 chain 2 with V136C, L176S, I180T
# chain 3: not shown
# chain 4: not shown
# B19: PL-17 (bispecific antibody)
# chain 1: not shown
# chain 2: B8 chain 2 with G112R, G113T, G114V, G115A, L176S, I180T
# chain 3: not shown
# chain 4: not shown
# B20: PL-2 (bispecific antibody)
# chain 1: not shown
# chain 2: B8 chain 2 with L176S, I180T
# chain 3: not shown
# chain 4: not shown
# B21: PL-18 (bispecific antibody)
# chain 1: not shown
# chain 2: B8 chain 2 with G112R, G113T, G114V, G115A, V136C, L176S, I180T
# chain 3: not shown
# chain 4: not shown
# B22: PL-8 (bispecific antibody)
# chain 1: not shown
# chain 2: B8 chain 2 with L176S, I180T
# chain 3: not shown
# chain 4: not shown
# B23: PL-6 (bispecific antibody)
# chain 1: not shown
# chain 2: B8 chain 2 with V136C, L176S, I180T
# chain 3: not shown
# chain 4: not shown
# B24: PL-5 (bispecific antibody)
# chain 1: not shown
# chain 2: B8 chain 2 with L176S, I180T
# chain 3: not shown
# chain 4: not shown
# B25: PL-3 (bispecific antibody)
# chain 1: not shown
# chain 2: B8 chain 2 with V136C, L176S, I180T
# chain 3: not shown
# chain 4: not shown
# Target: T1, human GPRC5D (human, UniProt Q9NZD1 1-345)
# Experiment: cell-based or functional assay
# T1 sequence (Q9NZD1 whole entry): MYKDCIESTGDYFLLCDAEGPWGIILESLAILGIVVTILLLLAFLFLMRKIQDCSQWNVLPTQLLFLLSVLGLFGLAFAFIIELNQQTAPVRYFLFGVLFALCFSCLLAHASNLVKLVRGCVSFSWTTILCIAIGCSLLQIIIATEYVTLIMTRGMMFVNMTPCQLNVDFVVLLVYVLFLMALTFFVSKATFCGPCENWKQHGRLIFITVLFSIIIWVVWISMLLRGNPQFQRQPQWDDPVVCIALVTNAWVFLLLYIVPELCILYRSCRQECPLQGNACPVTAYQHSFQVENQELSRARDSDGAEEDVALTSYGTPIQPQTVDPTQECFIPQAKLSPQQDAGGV
Binder,"EC50 ratio (relative to JNJ-64407564), cytotoxic activity against NCI-H929","Lysis rate %, cytotoxic activity against NCI-H929"
B1,0.08,61.5%
B2,0.26,64.3%

# Target: T2, cynomolgus monkey GPRC5D (cynomolgus monkey)
# T2 construct: whole, on cells; also called CynoGPRC5D; cynoGPRC5D
# Experiment: FACS, CHOK1-cynoGPRC5D cells
# Procedure: (§1) To test the capacity of the GPRC5D/CD3 bispecific antibodies of the present disclosure to bind to GPRC5D, a flow cytometry assay was used in this test example to measure the capacity of the GPRC5D/CD3 bispecific antibodies to bind to the human multiple myeloma cell line MM.1R (ATCC® CRL-2975), which expresses GPRC5D, and to a stably transfected cell strain CHOK1-cynoGPRC5D, which expresses cynomolgus monkey GPRC5D. The specific procedure was as follows: The cells described above were cultured in complete culture medium containing 10% FBS, incubated in a 37° C., 5% CO₂ incubator for 2 days, and added to a cell plate at 1×10⁵ cells/well. The plate was centrifuged at 300 g for 5 min and washed once with 1% BSA. The antibodies were serially diluted to 8 concentrations and added to the cell plate at 100 μL/well. The plate was incubated at 4° C. for 1 h and washed once with 1% BSA. […] The plate was washed three times with 1% BSA, PBS was added at 100 μL/well, and plate reading was performed.
row,EC50,Binder
1,3.15 nM,B3
2,3.16 nM,B4
3,1.45 nM,B5
4,2.95 nM,B6
5,1.86 nM,B7

# Target: T1, human GPRC5D
# Experiment: FACS, MM.1R cells
# Procedure: as §1
row,EC50,Binder
1,12.1 nM,B3
2,12.8 nM,B4
3,0.89 nM,B5
4,0.94 nM,B6
5,0.88 nM,B7

# Target: T2, cynomolgus monkey GPRC5D
# Experiment: FACS, CHOK1-cynoGPRC5D cells
# Remark: another data set of the same source
# Procedure: as §1
EC50,Max,Binder
3.15 nM,74900,B3
3.16 nM,71300,B4
1.45 nM,24000,B5
2.95 nM,25200,B6
1.86 nM,25800,B7

# Target: T1, human GPRC5D
# Experiment: FACS, MM.1R cells
# Remark: another data set of the same source
# Procedure: as §1
EC50,Max,Binder
12.1 nM,13600,B3
12.8 nM,13400,B4
0.89 nM,693,B5
0.94 nM,678,B6
0.88 nM,633,B7

# Target: T3, hPDL1 (human, UniProt Q9NZQ7 19-238)
# T3 construct: purchased from Sino biology
# Experiment: ELISA per WO2021139758 Test Example 4
# T3 sequence (Q9NZQ7 19-238 limits assumed): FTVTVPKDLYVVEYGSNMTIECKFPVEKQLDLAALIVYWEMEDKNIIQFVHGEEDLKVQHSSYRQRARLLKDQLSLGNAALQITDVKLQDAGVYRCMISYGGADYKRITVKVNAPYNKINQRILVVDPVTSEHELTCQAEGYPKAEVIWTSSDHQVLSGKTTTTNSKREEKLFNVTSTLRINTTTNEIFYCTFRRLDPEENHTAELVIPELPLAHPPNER
row,EC50,Binder
1,1.6 nM,B8
2,0.6 nM,B9
3,0.6 nM,B10
4,0.5 nM,B11
5,1.3 nM,B12
6,0.7 nM,B13
7,1.6 nM,B14
8,1.4 nM,B15
9,0.5 nM,B16
10,0.5 nM,B17
11,0.6 nM,B18
12,1.4 nM,B19
13,0.5 nM,B20
14,1.6 nM,B21
15,1.4 nM,B22
16,0.8 nM,B23
17,0.7 nM,B24
18,0.6 nM,B25

# Target: T4, hCTLA4 (human, UniProt P16410 36-161)
# T4 construct: purchased from Sino biology
# Experiment: ELISA per WO2021139758 Test Example 4
# T4 sequence (P16410 36-161 limits assumed): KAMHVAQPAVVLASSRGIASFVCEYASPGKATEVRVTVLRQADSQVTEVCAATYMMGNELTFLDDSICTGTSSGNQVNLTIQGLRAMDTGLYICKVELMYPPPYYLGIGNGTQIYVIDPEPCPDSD
row,EC50,Binder
1,16.5 nM,B8
2,6.9 nM,B9
3,5.6 nM,B10
4,8 nM,B11
5,6 nM,B12
6,6.5 nM,B13
7,6.5 nM,B14
8,3.2 nM,B15
9,7.3 nM,B16
10,4.4 nM,B17
11,5.5 nM,B18
12,6.2 nM,B19
13,8 nM,B20
14,6.7 nM,B21
15,14.5 nM,B22
16,5.3 nM,B23
17,6.7 nM,B24
18,7.9 nM,B25
